The target of the data set is T1, N-ht-CRP (cAMP receptor protein) (Shewanella oneidensis MR-1) (UniProt Q8EJ49).
T1 sequence: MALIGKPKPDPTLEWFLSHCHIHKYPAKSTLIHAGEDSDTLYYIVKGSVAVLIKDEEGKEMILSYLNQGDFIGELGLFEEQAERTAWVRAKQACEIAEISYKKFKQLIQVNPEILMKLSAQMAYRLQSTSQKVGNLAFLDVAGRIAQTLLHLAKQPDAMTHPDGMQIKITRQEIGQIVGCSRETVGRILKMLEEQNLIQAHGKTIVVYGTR
Kind of data set: EMSA. To be noted: 10 mM Tris-HCl pH 7.6, 0.5 mM EDTA, 100 mM KCl, 50 ug/mL BSA, 50 ug/mL poly(dI-dC), 50 uM cAMP, 10% glycerol, 2 nM probe, 0-200 ng CRP in 20 uL, on ice 30 min …. For orientation: In EMSA bound probe runs differently from free probe, usually more slowly.
As to “CCCGCTTAAAGTGACTGATAAATACCAATGACTTAGTTAGCCTTACAGGTGGGATCTAATTCC (double strand) [PBomcA2]”, the binding result is reported as “no binding”. The value for “CCTTGGGGAATTCTATTTCCAGCATCCACTTAAGTCGCTTCTAGTGATCAAATACACAGACATAGAATCTGTTGGCGCTAGAGCATAGCGGTTAAGCAATGCCAAACCTATGCAGGGAAAA (double strand) [PBmtrC2]” was “no binding”. Regarding “TCCACCTCACTATCTGTTGTTTTTTTGCTCTCAATTTGTTTTTCCCTTGTGGTTTAACTACCTCTTTAGAAATAGAAAGATCCAAGTCACACATTAGCAAAGGCTTAGAAGATTTTAACGGCATGTTGGGTTAGCCTTTCCTTGGGGAATTCTATTTCCAGCATCCACTTAAGTCGCTTCTAGTGATCAAATACACAGACATAGAATCTGTTGGCGCTAGAGCATAGCGGTTAAGCAATGCCAAACCTATGCAGGGAAAA (double strand) [PBmtrC1]”, the binding result is reported as “binds more weakly”.

The values are drawn from article PMC4417206.
